Results from US20050142634A1, “Novel modulator of non-genomic activity of nuclear receptors (mnar) and uses thereof” (Wyeth, priority 2001, published 2005).

Tested on: ER
Assay: MNAR structural-functional analysis, ER-stimulated transcription in HepG2 cells
Assay type: cell-based
Conditions: MNAR deletion mutants transfected into HepG2 cells
Description: To delineate the regions of MNAR that are responsible for interaction with estrogen receptor and c-Src tyrosine kinase, we performed functional evaluation of MNAR deletion mutants (FIG. 12). A series of C-terminal truncations of MNAR was generated using specially designed oligonucleotides, by amplifying appropriate fragments and cloning them into appropriate expression vectors. These mutants were tested for their abilities to enhance ER-stimulated transcription when transfected into HepG2 cells.
At the C-terminus, MNAR contains a region rich in both proline and glutamic acid. To delineate the regions on MNAR responsible for interaction with estrogen receptors and c-src tyrosine kinase, a functional evaluation of MNAR deletion mutants was performed (FIG. 12). A series of C-terminal truncations of MNAR was generated using specially designed oligonucleotides, by amplifying appropriate fragments and cloning them into appropriate expression vectors. These mutants were tested for their abilities to enhance ER-stimulated transcription when transfected into HepG2 cells.

B1: mutant 11: MNAR mutant aa 595-887 (protein, listed as Homo sapiens)
chain: PPPLACALQAFSLGQREDSLEVSSFCSEALVTCAALTHPRVPPLQPMGPTCPTPAPVPPPEAPSPFRAPPFHPPGPMPSVGSMPSAGPMPSAGPMPSAGPVPSARPGPPTTANHLGLSVPGLVSVPPRLLPGPENHRAGSNEDPILAPSGTPPPTIPPDETFGGRVPRPAFVHYDKEEASDVEISLESDSDDSVVIVPEGLPPLPPPPPSGATPPPIAPTGPPTASPPVPAKEEPEELPAAPGPLPPPPPPPPPVPGPVTLPPPQLVPEGTPGGGGPPALEEDLTVININSSD
- ability to enhance ER-stimulated transcription: inactive

B2: mutant 10: MNAR mutant aa 595-962 (protein, listed as Homo sapiens)
chain: PPPLACALQAFSLGQREDSLEVSSFCSEALVTCAALTHPRVPPLQPMGPTCPTPAPVPPPEAPSPFRAPPFHPPGPMPSVGSMPSAGPMPSAGPMPSAGPVPSARPGPPTTANHLGLSVPGLVSVPPRLLPGPENHRAGSNEDPILAPSGTPPPTIPPDETFGGRVPRPAFVHYDKEEASDVEISLESDSDDSVVIVPEGLPPLPPPPPSGATPPPIAPTGPPTASPPVPAKEEPEELPAAPGPLPPPPPPPPPVPGPVTLPPPQLVPEGTPGGGGPPALEEDLTVININSSDEEEEEEEEGEEEEEEEEEEEEDFEEEEEDEEEYFEEEEEEEEEFEEEFEEEEGELEEEEEEEDEEEEEELEEVED
- ability to enhance ER-stimulated transcription: inactive

B3: mutant 9: MNAR mutant, C-terminal portion aa 595-1131 (protein, listed as Homo sapiens)
chain: PPPLACALQAFSLGQREDSLEVSSFCSEALVTCAALTHPRVPPLQPMGPTCPTPAPVPPPEAPSPFRAPPFHPPGPMPSVGSMPSAGPMPSAGPMPSAGPVPSARPGPPTTANHLGLSVPGLVSVPPRLLPGPENHRAGSNEDPILAPSGTPPPTIPPDETFGGRVPRPAFVHYDKEEASDVEISLESDSDDSVVIVPEGLPPLPPPPPSGATPPPIAPTGPPTASPPVPAKEEPEELPAAPGPLPPPPPPPPPVPGPVTLPPPQLVPEGTPGGGGPPALEEDLTVININSSDEEEEEEEEGEEEEEEEEEEEEDFEEEEEDEEEYFEEEEEEEEEFEEEFEEEEGELEEEEEEEDEEEEEELEEVEDLEFGTAGGEVEEGAPPPPTLPPALPPPESPPKVQPEPEPEPGLLLEVEEPGTEEERGADTAPTLAPEALPSQGEVEREGESPAAGPPPQELVEEEPSAPPTLLEEEPEDGSDKVQPPPETPAEEEMETETEAEALQEKEQDDTAAMLADFIDCPPDDEKPPPPSEPDS
- ability to enhance ER-stimulated transcription: inactive
